Experimental data as given in article doi:10.1101/2023.08.30.555640 (bioRxiv, 2023).

Molecular target: Wildtype human ubiquitin (human, UniProt P0CG47 1-76)
Assay: NMR titration

PEVRFQQQLEQLNAMGFLNREANLQALIATGGDINAAIERLLGS (domain or fragment) [human ubiquilin2 UBA domain (residues 578 to 621)]: binds.
